From doi:10.1101/2023.08.01.551421 (bioRxiv, 2023)

Tests used:
cross-linking = biological target: the molecule itself; assay: cross-linking
[1] = biological target: the molecule itself; assay: light scattering-based polymerization assay
GTP hydrolysis assay = biological target: the molecule itself; assay: GTP hydrolysis assay

B1: GBP1 D199K, non-farnesylated (natural protein)
chain: MASEIHMTGPMCLIENTNGRLMANPEALKILSAITQPMVVVAIVGLYRTGKSYLMNKLAGKKKGFSLGSTVQSHTKGIWMWCVPHPKKPGHILVLLDTEGLGDVEKGDNQNDSWIFALAVLLSSTFVYNSIGTINQQAMDQLYYVTELTHRIRSKSSPDENENEVEDSADFVSFFPDFVWTLRDFSLDLEADGQPLTPKEYLTYSLKLKKGTSQKDETFNLPRLCIRKFFPKKKCFVFDRPVHRRKLAQLEKLQDEELDPEFVQQVADFCSYIFSNSKTKTLSGGIQVNGPRLESLVLTYVNAISSGDLPCMENAVLALAQIENSAAVQKAIAHYEQQMGQKVQLPTETLQELLDLHRDSEREAIEVFIRSSFKDVDHLFQKELAAQLEKKRDDFCKQNQEASSDRCSALLQVIFSPLEEEVKAGIYSKPGGYRLFVQKLQDLKKKYYEEPRKGIQAEEILQTYLKSKESMTDAILQTDQTLTEKEKEIEVERVKAESAQASAKMLQEMQRKNEQMMEQKERSYQEHLKQLTEKMENDRVQLLKEQERTLALKLQEQEQLLKEGFQKESRIMKNEIQDLQTKMRRRKACTIS
binding result (cross-linking): binds

B2: GBP1 D199K, farnesylated (natural protein)
chain: MASEIHMTGPMCLIENTNGRLMANPEALKILSAITQPMVVVAIVGLYRTGKSYLMNKLAGKKKGFSLGSTVQSHTKGIWMWCVPHPKKPGHILVLLDTEGLGDVEKGDNQNDSWIFALAVLLSSTFVYNSIGTINQQAMDQLYYVTELTHRIRSKSSPDENENEVEDSADFVSFFPDFVWTLRDFSLDLEADGQPLTPKEYLTYSLKLKKGTSQKDETFNLPRLCIRKFFPKKKCFVFDRPVHRRKLAQLEKLQDEELDPEFVQQVADFCSYIFSNSKTKTLSGGIQVNGPRLESLVLTYVNAISSGDLPCMENAVLALAQIENSAAVQKAIAHYEQQMGQKVQLPTETLQELLDLHRDSEREAIEVFIRSSFKDVDHLFQKELAAQLEKKRDDFCKQNQEASSDRCSALLQVIFSPLEEEVKAGIYSKPGGYRLFVQKLQDLKKKYYEEPRKGIQAEEILQTYLKSKESMTDAILQTDQTLTEKEKEIEVERVKAESAQASAKMLQEMQRKNEQMMEQKERSYQEHLKQLTEKMENDRVQLLKEQERTLALKLQEQEQLLKEGFQKESRIMKNEIQDLQTKMRRRKACTIS
modifications: farnesyl moiety, C-terminal (CaaX box motif)
binding result (cross-linking): binds

B3: GBP1 D199A, non-farnesylated (natural protein)
chain: MASEIHMTGPMCLIENTNGRLMANPEALKILSAITQPMVVVAIVGLYRTGKSYLMNKLAGKKKGFSLGSTVQSHTKGIWMWCVPHPKKPGHILVLLDTEGLGDVEKGDNQNDSWIFALAVLLSSTFVYNSIGTINQQAMDQLYYVTELTHRIRSKSSPDENENEVEDSADFVSFFPDFVWTLRDFSLDLEADGQPLTPAEYLTYSLKLKKGTSQKDETFNLPRLCIRKFFPKKKCFVFDRPVHRRKLAQLEKLQDEELDPEFVQQVADFCSYIFSNSKTKTLSGGIQVNGPRLESLVLTYVNAISSGDLPCMENAVLALAQIENSAAVQKAIAHYEQQMGQKVQLPTETLQELLDLHRDSEREAIEVFIRSSFKDVDHLFQKELAAQLEKKRDDFCKQNQEASSDRCSALLQVIFSPLEEEVKAGIYSKPGGYRLFVQKLQDLKKKYYEEPRKGIQAEEILQTYLKSKESMTDAILQTDQTLTEKEKEIEVERVKAESAQASAKMLQEMQRKNEQMMEQKERSYQEHLKQLTEKMENDRVQLLKEQERTLALKLQEQEQLLKEGFQKESRIMKNEIQDLQTKMRRRKACTIS
binding result (cross-linking): binds

B4: GBP1 D199A, farnesylated (natural protein)
chain: MASEIHMTGPMCLIENTNGRLMANPEALKILSAITQPMVVVAIVGLYRTGKSYLMNKLAGKKKGFSLGSTVQSHTKGIWMWCVPHPKKPGHILVLLDTEGLGDVEKGDNQNDSWIFALAVLLSSTFVYNSIGTINQQAMDQLYYVTELTHRIRSKSSPDENENEVEDSADFVSFFPDFVWTLRDFSLDLEADGQPLTPAEYLTYSLKLKKGTSQKDETFNLPRLCIRKFFPKKKCFVFDRPVHRRKLAQLEKLQDEELDPEFVQQVADFCSYIFSNSKTKTLSGGIQVNGPRLESLVLTYVNAISSGDLPCMENAVLALAQIENSAAVQKAIAHYEQQMGQKVQLPTETLQELLDLHRDSEREAIEVFIRSSFKDVDHLFQKELAAQLEKKRDDFCKQNQEASSDRCSALLQVIFSPLEEEVKAGIYSKPGGYRLFVQKLQDLKKKYYEEPRKGIQAEEILQTYLKSKESMTDAILQTDQTLTEKEKEIEVERVKAESAQASAKMLQEMQRKNEQMMEQKERSYQEHLKQLTEKMENDRVQLLKEQERTLALKLQEQEQLLKEGFQKESRIMKNEIQDLQTKMRRRKACTIS
modifications: farnesyl moiety, C-terminal (CaaX box motif)
binding result (cross-linking): binds

B5: GBP1 Δ207-216 variant, farnesylated (natural protein)
chain: MASEIHMTGPMCLIENTNGRLMANPEALKILSAITQPMVVVAIVGLYRTGKSYLMNKLAGKKKGFSLGSTVQSHTKGIWMWCVPHPKKPGHILVLLDTEGLGDVEKGDNQNDSWIFALAVLLSSTFVYNSIGTINQQAMDQLYYVTELTHRIRSKSSPDENENEVEDSADFVSFFPDFVWTLRDFSLDLEADGQPLTPDEYLTYSLGGGSETFNLPRLCIRKFFPKKKCFVFDRPVHRRKLAQLEKLQDEELDPEFVQQVADFCSYIFSNSKTKTLSGGIQVNGPRLESLVLTYVNAISSGDLPCMENAVLALAQIENSAAVQKAIAHYEQQMGQKVQLPTETLQELLDLHRDSEREAIEVFIRSSFKDVDHLFQKELAAQLEKKRDDFCKQNQEASSDRCSALLQVIFSPLEEEVKAGIYSKPGGYRLFVQKLQDLKKKYYEEPRKGIQAEEILQTYLKSKESMTDAILQTDQTLTEKEKEIEVERVKAESAQASAKMLQEMQRKNEQMMEQKERSYQEHLKQLTEKMENDRVQLLKEQERTLALKLQEQEQLLKEGFQKESRIMKNEIQDLQTKMRRRKACTIS
modifications: farnesyl moiety, C-terminal (CaaX box motif)
binding result [1]: binds

B6: GBP1 Δ207-216 variant, non-farnesylated (natural protein)
chain: MASEIHMTGPMCLIENTNGRLMANPEALKILSAITQPMVVVAIVGLYRTGKSYLMNKLAGKKKGFSLGSTVQSHTKGIWMWCVPHPKKPGHILVLLDTEGLGDVEKGDNQNDSWIFALAVLLSSTFVYNSIGTINQQAMDQLYYVTELTHRIRSKSSPDENENEVEDSADFVSFFPDFVWTLRDFSLDLEADGQPLTPDEYLTYSLGGGSETFNLPRLCIRKFFPKKKCFVFDRPVHRRKLAQLEKLQDEELDPEFVQQVADFCSYIFSNSKTKTLSGGIQVNGPRLESLVLTYVNAISSGDLPCMENAVLALAQIENSAAVQKAIAHYEQQMGQKVQLPTETLQELLDLHRDSEREAIEVFIRSSFKDVDHLFQKELAAQLEKKRDDFCKQNQEASSDRCSALLQVIFSPLEEEVKAGIYSKPGGYRLFVQKLQDLKKKYYEEPRKGIQAEEILQTYLKSKESMTDAILQTDQTLTEKEKEIEVERVKAESAQASAKMLQEMQRKNEQMMEQKERSYQEHLKQLTEKMENDRVQLLKEQERTLALKLQEQEQLLKEGFQKESRIMKNEIQDLQTKMRRRKACTIS
fold lower dimerization affinity than wild-type (GTP hydrolysis assay): 1.8 fold | stoichiometry N (cross-linking): 2

B7: GBP1 Δ207-213 variant, non-farnesylated (natural protein)
chain: MASEIHMTGPMCLIENTNGRLMANPEALKILSAITQPMVVVAIVGLYRTGKSYLMNKLAGKKKGFSLGSTVQSHTKGIWMWCVPHPKKPGHILVLLDTEGLGDVEKGDNQNDSWIFALAVLLSSTFVYNSIGTINQQAMDQLYYVTELTHRIRSKSSPDENENEVEDSADFVSFFPDFVWTLRDFSLDLEADGQPLTPDEYLTYSLGGGSGGGSQKDETFNLPRLCIRKFFPKKKCFVFDRPVHRRKLAQLEKLQDEELDPEFVQQVADFCSYIFSNSKTKTLSGGIQVNGPRLESLVLTYVNAISSGDLPCMENAVLALAQIENSAAVQKAIAHYEQQMGQKVQLPTETLQELLDLHRDSEREAIEVFIRSSFKDVDHLFQKELAAQLEKKRDDFCKQNQEASSDRCSALLQVIFSPLEEEVKAGIYSKPGGYRLFVQKLQDLKKKYYEEPRKGIQAEEILQTYLKSKESMTDAILQTDQTLTEKEKEIEVERVKAESAQASAKMLQEMQRKNEQMMEQKERSYQEHLKQLTEKMENDRVQLLKEQERTLALKLQEQEQLLKEGFQKESRIMKNEIQDLQTKMRRRKACTIS
fold lower dimerization affinity than wild-type (GTP hydrolysis assay): 3 fold | stoichiometry N (cross-linking): 2

B8: GBP1 Δ207-213 variant, farnesylated (natural protein)
chain: MASEIHMTGPMCLIENTNGRLMANPEALKILSAITQPMVVVAIVGLYRTGKSYLMNKLAGKKKGFSLGSTVQSHTKGIWMWCVPHPKKPGHILVLLDTEGLGDVEKGDNQNDSWIFALAVLLSSTFVYNSIGTINQQAMDQLYYVTELTHRIRSKSSPDENENEVEDSADFVSFFPDFVWTLRDFSLDLEADGQPLTPDEYLTYSLGGGSGGGSQKDETFNLPRLCIRKFFPKKKCFVFDRPVHRRKLAQLEKLQDEELDPEFVQQVADFCSYIFSNSKTKTLSGGIQVNGPRLESLVLTYVNAISSGDLPCMENAVLALAQIENSAAVQKAIAHYEQQMGQKVQLPTETLQELLDLHRDSEREAIEVFIRSSFKDVDHLFQKELAAQLEKKRDDFCKQNQEASSDRCSALLQVIFSPLEEEVKAGIYSKPGGYRLFVQKLQDLKKKYYEEPRKGIQAEEILQTYLKSKESMTDAILQTDQTLTEKEKEIEVERVKAESAQASAKMLQEMQRKNEQMMEQKERSYQEHLKQLTEKMENDRVQLLKEQERTLALKLQEQEQLLKEGFQKESRIMKNEIQDLQTKMRRRKACTIS
modifications: farnesyl moiety, C-terminal (CaaX box motif)
binding result [1]: binds
